Target: main protease from canine coronavirus (CCoV M^pro) (canine coronavirus)
Test: crystal structure; CCoV M^pro incubated with two-fold molar excess of GC376 at 4 °C for 1 h; crystals from 0.2 M sodium citrate, 0.1 M Bis Tris propane 7.0, 25% w/v PEG 3350 at 20 °C; 2.75 Å, space group C2, eight protomers in the asymmetric unit

“main protease from canine coronavirus (CCoV M^pro) (enzyme)” was tested, and the stoichiometry N was 2.
